Paper PMC8986097, “SUMO-mediated recruitment allows timely function of the Yen1 nuclease in mitotic cells” (PLoS Genetics, 2022)

B1: Yen1-1xHA, wild-type, purified [S. cerevisiae] / GST-Smt3 [S. cerevisiae] (parent complex)
chain 1: MGVSQIWEFLKPYLQDSRIPLRKFVIDFNKSQKRAPRIAIDAYGWLFECGFIQNIDISARSRSRSRSPTRSPRDSDIDSSQEYYGSRSYTTTGKAVINFISRLKELLSLNVEFLLVFDGVMKPSFKRKFNHEQNATTCDDEKEYYSSWEQHVKNHEVYGNCKGLLAPSDPEFISLVRKLLDLMNISYVIACGEGEAQCVWLQVSGAVDFILSNDSDTLVFGGEKILKNYSKFYDDFGPSSITSHSPSRHHDSKESFVTVIDLPKINKVAGKKFDRLSLLFFSVLLGADYNRGVKGLGKNKSLQLAQCEDPNFSMEFYDIFKDFNLEDLTSESLRKSRYRLFQKRLYLYCKDHSVELFGRNYPVLLNQGSFEGWPSTVAIMHYFHPIVQPYFDEEVLSDKYINMAGNGHYRNLNFNELKYFLQSLNLPQISSFDKWFHDSMHEMFLLREFLSIDESDNIGKGNMRITEEKIMNIDGGKFQIPCFKIRYTTFLPNIPISSQSPLKRSNSPSRSKSPTRRQMDIMEHPNSLWLPKYLIPQSHPLVIQYYETQQLIQKEKEKKGKKSNKSRLPQKNNLDEFLRKHTSPIKSIGKVGESRKEILEPVRKRLFVDTDEDTSLEEIPAPTRLTTVDEHSDNDDDSLIFVDEITNSQSVLDSSPGKRIRDLTQDEQVDVWKDVIEISPIKKSRTTNAEKNPPESGLKSRSSITINARLQGTKMLPPNLTAPRLEREHSSVLDQLVTDAQDTVDRFVACDSDSSSTIE
chain 2: MSDSEVNQEAKPEVKPEVKPETHINLKVSDGSSEIFFKIKKTTPLRRLMEAFAKRQGKEMDSLRFLYDGIRIQADQTPEDLDMEDNDIIEAHREQIGGATY

Variants of: B1
Assay: pull-down (GST-Smt3 on Glutathione resin, immuno-blot anti-HA); 1/10 inputs, 1/4 elution; parent: 1

Variant | ratio to parent
chain 1 V675A, chain 1 E677A | 0.9
chain 1 D635A, chain 1 D636A, chain 1 D637A | 0.9
